Measurements from US20220162320A1 (published 2022).

The binders below were run against HLA-PEPTIDE target G8: HLA-A*02:01_…, recombinant soluble complex (human, enzymatically biotinylated (BirA) for screening and BLI) (assay: phage display, scFv ELISA on pHLA against negative control pHLAs).

Row | binding result | Binder
1 | binds | scFv G8(1A03) (scFv, V domains shown) VH: QVQLVQSGAEVKKPGASVKVSCKASGGTFSRSAITWVRQAPGQGLEWMGWINPNSGATNYAQKFQGRVTMTRDTSTSTVYMELSSLRSEDTAVYYCARDDYGDYVAYFQHWGQGTLVTVSS VL: DIQMTQSPSSLSASVGDRVTITCRASQSITSYLNWYQQKPGKAPKLLIYDASNLETGVPSRFSGSGSGTDFTLTISSLQPEDFATYYCQQNYNSVTFGQGTKLEIK
2 | binds | scFv G8(2B05) (scFv, V domains shown) VH: EVQLLESGGGLVQPGGSLRLSCAASGFDFSIYSMNWVRQAPGKGLEWVSAISGSGGSTYYADSVKGRFTISRDNSKNTLYLQMNSLRAEDTAVYYCASNGNYYGSGSYYNYWGQGTLVTVSS VL: DIQMTQSPSSLSASVGDRVTITCRASQSISRWLAWYQQKPGKAPKLLIYAASSLQSGVPSRFSGSGSGTDFTLTISSLQPEDFATYYCQQYSTYPITIGQGTKVEIK
3 | binds | scFv G8(1H08) (scFv, V domains shown, also called G8-P1H08) VH: QVQLVQSGAEVKKPGASVKVSCKASGYTFGNYFMHWVRQAPGQGLEWMGMVNPSGGSETFAQKFQGRVTMTRDTSTSTVYMELSSLRSEDTAVYYCAASTWIQPFDYWGQGTLVTVSS VL: DIQMTQSPSSLSASVGDRVTITCRASQGINSYLAWYQQKPGKAPKLLIYDASNLETGVPSRFSGSGSGTDFTLTISSLQPEDFATYYCQQHNSYPPTFGQGTKLEIK
4 | binds | scFv G8(1C01) (scFv, V domains shown) VH: QVQLVQSGAEVKKPGASVKVSCKASGGTFSSHAISWVRQAPGQGLEWMGVIIPSGGTSYTQKFQGRVTMTRDTSTSTVYMELSSLRSEDTAVYYCARGDYYDSSGYYFPVYFDYWGQGTLVTVSS VL: DIQMTQSPSSLSASVGDRVTITCRASQNIYTYLNWYQQKPGKAPKLLIYDASNLETGVPSRFSGSGSGTDFTLTISSLQPEDFATYYCQQANGFPLTFGGGTKVEIK
5 | binds | scFv G8(1A06) (scFv, V domains shown) VH: QVQLVQSGAEVKKPGASVKVSCKASGYTFTNYYMHWVRQAPGQGLEWMGWMNPIGGGTGYAQKFQGRVTMTRDTSTSTVYMELSSLRSEDTAVYYCARVYDFWSVLSGFDIWGQGTLVTVSS VL: DIQMTQSPSSLSASVGDRVTITCRASQAISNSLAWYQQKPGKAPKLLIYAASTLQSGVPSRFSGSGSGTDFTLTISSLQPEDFATYYCGQSYSTPPTFGQGTKLEIK
6 | binds | scFv G8(5G08) (scFv, V domains shown) VH: QVQLVQSGAEVKKPGASVKVSCKASGYTFTSNYMHWVRQAPGQGLEWMGWMNPNSGNTGYAQKFQGRVTMTRDTSTSTVYMELSSLRSEDTAVYYCARGLYGDYFLYYGMDVWGQGTTVTVSS VL: not shown
7 | binds | scFv G8(1A04) (scFv, V domains shown) VH: QVQLVQSGAEVKKPGASVKVSCKASGYPFIGQYLHWVRQAPGQGLEWMGIINPSGDSATYAQKFQGRVTMTRDTSTSTVYMELSSLRSEDTAVYYCARDLSYYYGMDVWGQGTTVTVSS VL: DIQMTQSPSSLSASVGDRVTITCWASQGISSYLAWYQQKPGKAPKLLIYAASSLQSGVPSRFSGSGSGTDFTLTISSLQPEDFATYYCQQSYNTPWTFGPGTKVDIK
8 | binds | scFv G8(4F05) (scFv, V domains shown) VH: QVQLVQSGAEVKKPGASVKVSCKASGYTFSNMYLHWVRQAPGQGLEWMGWINPNTGDTNYAQTFQGRVTMTRDTSTSTVYMELSSLRSEDTAVYYCARGLYGDYFLYYGMDVWGQGTKVTVSS VL: DIQMTQSPSSLSASVGDRVTITCRASQGISNYLAWYQQKPGKAPKLLIYAASTLQSGVPSRFSGSGSGTDFTLTISSLQPEDFATYYCQQSYSTPLTFGGGTKVEIK
9 | binds | scFv G8(1B03) (scFv, V domains shown) VH: EVQLLESGGGLVQPGGSLRLSCAASGFTFSDYYMSWVRQAPGKGLEWVSGINWNGGSTGYADSVKGRFTISRDNSKNTLYLQMNSLRAEDTAVYYCARVEQGYDIYYYYYMDVWGKGTTVTVSS VL: DIQMTQSPSSLSASVGDRVTITCRASQSISSYLNWYQQKPGKAPKLLIYKASSLESGVPSRFSGSGSGTDFTLTISSLQPEDFATYYCQQSYSAPYTFGPGTKVDIK
10 | binds | scFv G8(1D02) (scFv, V domains shown) VH: EVQLLESGGGLVQPGGSLRLSCAASGFTFSSYWMSWVRQAPGKGLEWVSSISGRGDNTYYADSVKGRFTISRDNSKNTLYLQMNSLRAEDTAVYYCARASGSGYYYYYGMDVWGQGTTVTVSS VL: DIQMTQSPSSLSASVGDRVTITCQASQDISNYLNWYQQKPGKAPKLLIYAASSLQSGVPSRFSGSGSGTDFTLTISSLQPEDFATYYCQQSYSAPYTFGGGTKVEIK
11 | binds | scFv G8(2E06) (scFv, V domains shown) VH: QVQLVQSGAEVKKPGASVKVSCKASGYTLTTYYMHWVRQAPGQGLEWMGWINPNSGGTNYAQKFQGRVTMTRDTSTSTVYMELSSLRSEDTAVYYCARAVYYDFWSGPFDYWGQGTLVTVSS VL: DIQMTQSPSSLSASVGDRVTITCRASQGISNSLAWYQQKPGKAPKLLIYAASSLQSGVPSRFSGSGSGTDFTLTISSLQPEDFATYYCQQANSFPWTFGQGTKLEIK
12 | binds | scFv G8(5C03) (scFv, V domains shown) VH: QVQLVQSGAEVKKPGASVKVSCKASGYTFTSYYMHWVRQAPGQGLEWMGWMNPNSGNTGYAQKFQGRVTMTRDTSTSTVYMELSSLRSEDTAVYYCARGLLGFGEFLTYGMDVWGQGTLVTVSS VL: DIQMTQSPSSLSASVGDRVTITCRASQGISNWLAWYQQKPGKAPKLLIYAASTLQSGVPSRFSGSGSGTDFTLTISSLQPEDFATYYCQQTYSTPWTFGQGTKLEIK
13 | binds | scFv G8(5F02) (scFv, V domains shown) VH: QVQLVQSGAEVKKPGASVKVSCKASGYTFTGYYIHWVRQAPGQGLEWMGVINPSGGSTTYAQKLQGRVTMTRDTSTSTVYMELSSLRSEDTAVYYCARDRDSSWTYYYYGMDVWGQGTTVTVSS VL: EIVMTQSPATLSVSPGERATLSCRASQSVGNSLAWYQQKPGQAPRLLIYGASTRATGIPARFSGSGSGTEFTLTISSLQSEDFAVYYCQQYGSSPYTFGQGTKVEIK

Each binder was assayed against HLA-PEPTIDE target G10: HLA-A*01:01_…, recombinant soluble complex (human, enzymatically biotinylated (BirA)) in the same assay as above.

Row | binding result | Binder
14 | binds | scFv G10(4D04) (scFv, V domains shown) VH: QVQLVQSGAEVKKPGASVKVSCKASGYTFTGYYVHWVRQAPGQGLEWMGIIAPSDGSTNYAQKFQGRVTMTRDTSTSTVYMELSSLRSEDTAVYYCARDPGGYMDVWGKGTTVTVSS VL: DIQMTQSPSSLSASVGDRVTITCRASQSISSYLAWYQQKPGKAPKLLIYDASKLETGVPSRFSGSGSGTDFTLTISSLQPEDFATYYCQQSYGVPTFGQGTKLEIK
15 | binds | scFv G10(2C04) (scFv, V domains shown) VH: QVQLVQSGAEVKKPGASVKVSCKASGGTFSNSIINWVRQAPGQGLEWMGWMNPNSGNTNYAQKFQGRVTMTRDTSTSTVYMELSSLRSEDTAVYYCAREQWPSYWYFDLWGRGTLVTVSS VL: not shown
16 | binds | scFv G10(2G11) (scFv, V domains shown) VH: QVQLVQSGAEVKKPGASVKVSCKASGGTFSTHDINWVRQAPGQGLEWMGVINPSGGSAIYAQKFQGRVTMTRDTSTSTVYMELSSLRSEDTAVYYCARDRGYSYGYFDYWGQGTLVTVSS VL: DIQMTQSPSSLSASVGDRVTITCRASQDISRYLAWYQQKPGKAPKLLIYDASNLETGVPSRFSGSGSGTDFTLTISSLQPEDFATYYCQQANSFPRTFGQGTKVEIK
17 | binds | scFv G10(1F06) (scFv, V domains shown, also called G10(1F6)) VH: QVQLVQSGAEVKKPGASVKVSCKASGYTFIGYYMHWVRQAPGQGLEWMGMIGPSDGSTSYAQKFQGRVTMTRDTSTSTVYMELSSLRSEDTAVYYCARDSSGLDPWGQGTLVTVSS VL: DIQMTQSPSSLSASVGDRVTITCRASQSISNYLNWYQQKPGKAPKLLIYKASSLESGVPSRFSGSGSGTDFTLTISSLQPEDFATYYCQQSYIIPYTFGQGTKLEIK
18 | binds | scFv G10(1H01) (scFv, V domains shown) VH: QVQLVQSGAEVKKPGASVKVSCKASGYTFTGYYMHWVRQAPGQGLEWMGMIGPSDGSTSYAQKFQGRVTMTRDTSTSTVYMELSSLRSEDTAVYYCARGVGNLDYWGQGTLVTVSS VL: DIQMTQSPSSLSASVGDRVTITCRASQSISNYLNWYQQKPGKAPKLLIYAASSLQSGVPSRFSGSGSGTDFTLTISSLQPEDFATYYCHQTYSTPLTFGQGTKVEIK
19 | binds | scFv G10(4D10) (scFv, V domains shown) VH: QVQLVQSGAEVKKPGASVKVSCKASGYTFTGYYLHWVRQAPGQGLEWMGMIGPSDGSTSYAQKFQGRVTMTRDTSTSTVYMELSSLRSEDTAVYYCARDGDAFDIWGQGTMVTVSS VL: DIQMTQSPSSLSASVGDRVTITCRASQGISSWLAWYQQKPGKAPKLLIYDASNLETGVPSRFSGSGSGTDFTLTISSLQPEDFATYYCQQSYSTPLTFGGGTKVEIK

The remaining lines, values behind:

Row | Binder | binding result
20 | scFv G10(3E04) (scFv, V domains shown) VH: QVQLVQSGAEVKKPGASVKVSCKASGNTFIGYYVHWVRQAPGQGLEWVGIINPNGGSISYAQKFQGRVTMTRDTSTSTVYMELSSLRSEDTAVYYCARGSGDPNYYYYYGLDVWGQGTTVTVSS VL: DIQMTQSPSSLSASVGDRVTITCQASQDISNYLNWYQQKPGKAPKLLIYAASNLQSGVPSRFSGSGSGTDFTLTISSLQPEDFATYYCQQANSLPYTFGQGTKVEIK | binds
21 | scFv G10(1E12) (scFv, V domains shown) VH: QVQLVQSGAEVKKPGASVKVSCKASGYIFTGYYMHWVRQAPGQGLEWMGMIGPSDGSTSYAQKFQGRVTMTRDTSTSTVYMELSSLRSEDTAVYYCAREDDSMDVWGKGTTVTVSS VL: not shown | binds
22 | scFv G10(1A07) (scFv, V domains shown) VH: EVQLLESGGGLVKPGGSLRLSCAASGFTFSSYWMSWVRQAPGKGLEWVSGISARSGRTYYADSVKGRFTISRDDSKNTLYLQMNSLKTEDTAVYYCARDQDTIFGVVITWFDPWGQGTLVTVSS VL: DIQMTQSPSSLSASVGDRVTITCRASQGISNYLAWYQQKPGKAPKLLIYAASSLQGGVPSRFSGSGSGTDFTLTISSLQPEDFATYYCQQYFTTPYTFGQGTKLEIK | binds
